Drawing on patent US20250289896A1 (ANALYTICAL BIOSCIENCES SHANGHAI, published 2025), this text covers binding result and EC50 for 16 molecules.

For one experiment, the target named is T1, mCCR8 (UniProt P56484 1-353, limits assumed).
T1 construct: whole, on cells; also called 293T-mCCR8
T1 sequence (looked up): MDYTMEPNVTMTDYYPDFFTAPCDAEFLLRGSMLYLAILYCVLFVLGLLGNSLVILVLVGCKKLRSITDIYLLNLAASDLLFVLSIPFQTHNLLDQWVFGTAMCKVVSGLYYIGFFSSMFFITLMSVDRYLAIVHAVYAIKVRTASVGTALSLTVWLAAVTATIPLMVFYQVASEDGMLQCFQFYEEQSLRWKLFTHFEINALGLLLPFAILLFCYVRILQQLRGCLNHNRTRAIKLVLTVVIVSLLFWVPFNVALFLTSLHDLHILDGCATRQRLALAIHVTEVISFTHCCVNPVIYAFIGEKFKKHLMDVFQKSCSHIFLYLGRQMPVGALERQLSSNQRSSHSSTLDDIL
Nature of the experiment: flow cytometry, 293T cells with mCCR8. The method, then:
(§1) Binding specificity of the anti-CCR8 antibodies (mAbs) was tested by FACS using several cell lines. […] The binding titration of the anti-CCR8 antibodies to CCR8 transfectants was performed by serial dilution of antibodies. The diluted antibody (50 μl) in flow cytometry buffer (PBS, 0.5% BSA, 1 mM EDTA) was incubated with cells (50 μl) at a concentration of 2 million cells/ml on ice for 30 min. After two washes with flow cytometry buffer, bound antibody was detected with Alexa647-labeled F(ab′)2 fragment goat anti-human IgG (Jackson ImmunoResearch #709-606-149) (1:500 dilution) for 20 minutes on ice. The fluorescence was measured on a Cytek Aurora cytometer, after two washes with flow cytometry buffer. The data were analyzed with GraphPad Prism 8.0 software to determine EC50 values.

In experiment [1] the target is T2, Human CCR8 (C-C chemokine receptor type 8) (human, UniProt P51685 1-355).
T2 construct: overexpressed on HEK293T (293T-hCCR8), Jurkat-hCCR8 and CHEM1-CCR8 cells; also called hCCR8
T2 sequence (P51685 whole entry): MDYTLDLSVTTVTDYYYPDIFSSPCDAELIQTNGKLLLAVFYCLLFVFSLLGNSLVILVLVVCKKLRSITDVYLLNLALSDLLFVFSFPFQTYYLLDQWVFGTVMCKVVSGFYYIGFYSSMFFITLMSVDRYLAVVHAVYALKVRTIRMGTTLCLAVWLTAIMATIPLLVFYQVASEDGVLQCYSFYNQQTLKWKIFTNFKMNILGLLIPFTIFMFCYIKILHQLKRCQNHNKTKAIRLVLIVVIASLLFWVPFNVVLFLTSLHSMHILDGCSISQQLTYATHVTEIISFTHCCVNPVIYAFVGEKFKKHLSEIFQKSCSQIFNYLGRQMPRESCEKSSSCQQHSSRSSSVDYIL
Kind of experiment: flow cytometry, 293T cells overexpressing human CCR8. The procedure: as §1

Another experiment concerns the target T3, cynomolgus macaque CCR8 (cynomolgus macaque, UniProt G7NYJ2 1-355).
T3 construct: whole, on cells; Overexpressed on 293T cells (293T-cCCR8) and Jurkat cells (Jurkat-cynoCCR8); also called cCCR8; cyno CCR8
Kind of experiment: flow cytometry, 293T cells overexpressing cynomolgus CCR8. The method, then:
as §1

The target of experiment [2] is T2, Human CCR8 (C-C chemokine receptor type …). Nature of the experiment: flow cytometry on cells carrying human CCR8.
The target is the same in experiment [3]. Nature of the experiment: flow cytometry, Hut78 cells (endogenous human CCR8). The procedure:
as §1

T3 sequence (G7NYJ2 entry or part of it): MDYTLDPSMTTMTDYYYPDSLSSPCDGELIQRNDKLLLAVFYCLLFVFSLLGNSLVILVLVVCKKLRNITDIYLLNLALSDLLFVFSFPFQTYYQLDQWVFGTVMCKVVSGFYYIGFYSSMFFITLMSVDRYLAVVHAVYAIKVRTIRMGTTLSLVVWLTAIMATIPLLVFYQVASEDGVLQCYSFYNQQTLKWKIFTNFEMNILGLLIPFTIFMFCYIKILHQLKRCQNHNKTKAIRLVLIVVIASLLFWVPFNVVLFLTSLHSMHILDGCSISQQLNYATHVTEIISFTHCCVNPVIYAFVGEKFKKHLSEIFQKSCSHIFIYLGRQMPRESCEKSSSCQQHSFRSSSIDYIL

B1: ABC527 (antibody, human IgG1, kappa, V domains shown)
VH: EVQLVESGGGVVQPGRSLRLSCAASGFPFSFYGMAWVRQAPGKGLEWVASISYDGSDTYYRDSVKGRFTISRDNSKNTLYLQMNSLRAEDTAVYYCAKTSGYGSFDYWGQGTLVTVSS
VL: DIVMTQTPLSLSVTPGQPASISCRSSRSLVHRNGDTYLHWYLQKPGQSPQLLIYRVSNRFAGVPDRFSGSGSGTDFTLKISRVEAEDVGVYYCLQGTHLPPTFGQGTKLEIKR
On to B1, for which, in the experiment with mCCR8, the binding result is given as “no binding”. Besides, the EC50 was determined as 1.74 nM in experiment [1] and 2.14 nM in the experiment with cynomolgus macaque CCR8.

B2: ABC137-H2.hu12.IgG1.SDIE (antibody, V domains shown)
VH: EVQLVESGGGLVQPGGSLRLSCAASGFPFNTFAMNWVRQAPGKGLEWLARIRSKSNNYATYYADSVKDRFTISRDNAKRSLYLQMNSLRAEDTAVYYCVRGKENNYGYAMDYWGQGTTVTVSS
VL: DIVMTQSPLSLPVTPGEPASISCRSSKSLLHSNGNTYLYWFLQKPGQSPQLLIYRMSNLASGVPDRFSGSGSGTDFTLKISRVEAEDVGVYYCMQHVEYPFTFGGGTKLEIKR
notes: Parental clone ABC025.H2G.SDIE; IgG1 with SDIE mutations
As for B2, the binding result in experiment [2] is recorded as “binds”.

B3: H2I (antibody, human IgG1, kappa, V domains shown)
VH: EVQLVESGGGLVQPGGSLRLSCAASGFPFNTFAMNWVRQAPGKGLEWLARIRSKSNNYATYYADSVKDRFTISRDNARRSLYLQMNSLRAEDTAVYYCVRGKENNYGYAMDYWGQGTTVTVSS
VL: DIVMTQSPLSLPVTPGEPASISCRSSQSLLHSNANTYLYWFLQKPGQSPQLLIYRMSNLASGVPDRFSGSGSGTDFTLKISRVEAEDVGVYYCMQHLEYPFTFGQGTKLEIKR
Turning to B3, the binding result in experiment [2] is “binds”.

B4: H2C (antibody, human IgG1, kappa, V domains shown)
VH: EVQLVESGGGLVQPGGSLRLSCAASGFPFNTFAMNWVRQAPGKGLEWLARIRSKSNNYATYYADSVKDRFTISRDNARRSLYLQMNSLRAEDTAVYYCVRGKENNYGYAMDYWGQGTTVTVSS
VL: DIVMTQSPLSLPVTPGEPASISCRSSQSLLHSNGNTYLYWFLQKPGQSPQLLIYRMSNLASGVPDRFSGSGSGTDFTLKISRVEAEDVGVYYCMQHLEYPFTFGQGTKLEIKR
For B4, the binding result in experiment [2] was “binds”.

B5: ABC051-B1.hu14.IgG1.SDIE (antibody, V domains shown)
VH: EVQLVESGGGLVQPGGSLKLSCAASGFTFNTYAMNWVRQASGKGLEWVARIRSKSNNYATYYADSVKDRFTISRDDSKNTLYLQMNSLKTEDTAVYYCVREVRRDYALDQWGQGTMVTVSS
VL: DIVMTQSPLSLPVTPGEPASISCRSSKSLLHSNANTYLYWFLQKPGQSPQLLIYRMSNLASGVPDRFSGSGSGTDFTLKISRVEAEDVGVYYCMQHVEYPFTFGGGTKLEIKR
notes: IgG1 with SDIE mutations, by its name
On to B5, for which the binding result in experiment [2] is “binds”.

B6: ABC050-B1.hu13.IgG1.SDIE (antibody, V domains shown)
VH: EVQLVESGGGLVQPGGSLKLSCAASGFTFNTYAMNWVRQASGKGLEWVARIRSKSNNYATYYADSVKDRFTISRDDSKNTLYLQMNSLKTEDTAVYYCVREVRRDYALDQWGQGTMVTVSS
VL: DIVMTQSPLSLPVTPGEPASISCRSSKSLLHSSGNTYLYWFLQKPGQSPQLLIYRMSNLASGVPDRFSGSGSGTDFTLKISRVEAEDVGVYYCMQHVEYPFTFGGGTKLEIKR
notes: as for B5
In the case of B6, the binding result in experiment [2] is “binds”.

B7: H2A (antibody, human IgG1, kappa, V domains shown)
VH: EVQLVESGGGLVQPGGSLRLSCAASGFPFNTFAMNWVRQAPGKGLEWLARIRSKSNNYATYYADSVKDRFTISRDNAKNSLYLQMNSLRAEDTAVYYCVRGKENNYGYAMDYWGQGTTVTVSS
VL: DIVMTQSPLSLPVTPGEPASISCRSSQSLLHSNGNTYLYWFLQKPGQSPQLLIYRMSNLASGVPDRFSGSGSGTDFTLKISRVEAEDVGVYYCMQHLEYPFTFGQGTKLEIKR
With B7, the binding result in experiment [2] is on record as “binds”.

B8: H2B (antibody, human IgG1, kappa, V domains shown)
VH: EVQLVESGGGLVQPGGSLRLSCAASGFPFNTFAMNWVRQAPGKGLEWLARIRSKSNNYATYYADSVKDRFTISRDNAKRSLYLQMNSLRAEDTAVYYCVRGKENNYGYAMDYWGQGTTVTVSS
VL: DIVMTQSPLSLPVTPGEPASISCRSSQSLLHSNGNTYLYWFLQKPGQSPQLLIYRMSNLASGVPDRFSGSGSGTDFTLKISRVEAEDVGVYYCMQHLEYPFTFGQGTKLEIKR
Regarding B8, the binding result in experiment [2] was “binds”.

B9: ABC049-B1.hu12.IgG1.SDIE (antibody, V domains shown)
VH: EVQLVESGGGLVQPGGSLKLSCAASGFTFNTYAMNWVRQASGKGLEWVARIRSKSNNYATYYADSVKDRFTISRDDSKNTLYLQMNSLKTEDTAVYYCVREVRRDYALDQWGQGTMVTVSS
VL: DIVMTQSPLSLPVTPGEPASISCRSSKSLLHSQGNTYLYWFLQKPGQSPQLLIYRMSNLASGVPDRFSGSGSGTDFTLKISRVEAEDVGVYYCMQHVEYPFTFGGGTKLEIKR
notes: as for B5
Take B9: the binding result in experiment [2] was “binds”.

B10: ABC818 (antibody, human IgG1, kappa, V domains shown)
VH: EVQLVESGGGLVQPGRSLKLSCAASGFTFSDYYMAWVRQAPKKGLEWVASITYAGSKTYYGDSVKGRFTISRDDAKSTLYLQMNSLRSEDTATYYCARQDLYYGHNPYWYFDFWGPGTMVTVSS
VL: DIVMTQSPTSMSISVGDRVTMNCKASQNVGSNVDWYQQKTGQSPKLLIYKTSSRFTGVPDRFTGSGSRTDFTFTISNMQAEDLALYYCVQSNSYPYTFGAGTKLELKR
On to B10, for which, in the experiment with mCCR8, the binding result is on record as “no binding”. Moreover, the concentration for a half-maximal effect (EC50) in experiment [1] came out at 0.744 nM; with cynomolgus macaque CCR8, 0.537 nM.

B11: ABC819 (antibody, human IgG1, kappa, V domains shown)
VH: EVQLVESGGGLMQPRRSLKLSCAASGFPFSDYNMAWVRQAPKKGLEWVASITYAGTKTYYGDSVKGRFTISRDDAKSTLYLQMNSLRSEDTATYYCARQDLYYGRNQYWYLDFWGPGTMVTVSS
VL: DIVMTQSPTSMSKSVGDRVTMSCKASQNVGSNVDWYQQKTGQSPKLLIYKTSSRFTGVPDRFTGSGSRTDFTFTISSMQAEDLALYYCVQSNSYPYTFGAGTKLELRT
Take B11: the binding result in the experiment with mCCR8 is recorded as “no binding”. The EC50 is 8.51 nM in experiment [1] and 7.11 nM with cynomolgus macaque CCR8.

B12: ABC823 (antibody, human IgG1, kappa, V domains shown)
VH: EVQLVESGGGLVQPRRSLKLSCAASGFTFSDYYMAWVRQAPKKGLEWVASIGYEGSGVYYGDSVKGRFTISRDDAKSSLYLQMNSLRSEDTATYYCARQELYYGHNPYWYFDFWGPGTMVTVSS
VL: DIVMTQSPTSMSISVGDRVTMNCKASQNVGSNVDWYQQKTGQSPKLLIYKTSSRFTGVPDRFTGSGSKTAFSFTISNMQAEDLAVYYCMQSNSYPYTFGAGTKLELKR
Take B12: in the experiment with mCCR8, the binding result was “no binding”. In addition, the concentration for a half-maximal effect (EC50) in experiment [1] came out at 1.51 nM; with cynomolgus macaque CCR8 it was 0.884 nM.

B13: ABC816 (antibody, human IgG1, kappa, V domains shown)
VH: AVQLVESGGGLVQPKESLKISCAASGFTFSNAAMYWVRQAPGKGLEWVARIRTKPNNYATYYADSVKGRFTISRDDSKSMVYLQMDNLKTEDTAMYYCTAAVYSSYGYFDYWGQGVMVTVSS
VL: DIQMTQSPASLSASLEEIVTITCQASQNNGNWLAWYQQKPGKSPQLLIYGTTNLADGVPSRFSGSRSGTQYSLKISRLQVEDIGIYYCQQASSTPWTFGGGTKLELKR
Turning to B13, the EC50 in the experiment with mCCR8 was 0.133 nM. The binding result (in experiment [3]; with cynomolgus macaque CCR8) was “no binding” in each case.

B14: ABC815 (antibody, human IgG1, kappa, V domains shown)
VH: VQLVESGGGLVQPGRSLKLSCAASGFTFSNYDMAWVRQVPTKGLEWVASVSPSAGTTYYRDSVKGRFTVSRDIAKSSLYLQMDSLRSEDTATYYCARHMIYRGYNYAVSYYVMDVWGQGASVTVSS
VL: IQLTQSPSLLSASVGDRVTLTCKGSQNINSYLAWYQQKLGEAPKLLIYNTNSLQTGIPSRFSGSGSGTDYTLTISSLQPEDVATYFCYQYNNGYTWTFGGGTKLELKR
For B14, the binding result in the experiment with mCCR8 is “no binding”. Further, the EC50 (in experiment [1]; in the experiment with cynomolgus macaque CCR8) was 6.47 nM each time.

B15: ABC821 (antibody, human IgG1, kappa, V domains shown)
VH: EVQLVESGGGLVQPGRSLKLSCVASGFTFNYYWMTWIRQAPGKGLEWVASITNTGDTTYYPDSVKGRFTISRHNAKSTLYLQMNSLRSEDTATYYCSRGDGGSSFWIAYWGQGTLVTVSS
VL: DVVMTQTPVSLPVSLGGQASISCRSSQSLVHRSGNTYLHWYLQKPGQSPQLLIYRVSNRFSGGPDRFSGSGSGTTFTLKISRVEPEDLGDYYCLQTTHFPPTFGSGTKLEIKR
In turn, B15 came in with a concentration for a half-maximal effect (EC50) with mCCR8 of 6.74 nM. For the same molecule, the binding result (in experiment [1]; with cynomolgus macaque CCR8) was “no binding” throughout.

B16: ABC531 (antibody, human IgG1, kappa, V domains shown)
VH: EVQLVESGGGVVQPGGSLRLSCAASGFTFSNYGMHWIRQAPGKGLEWIAMIYSDSSKMFYTDTVKGRFTISRDNSKNTLYLQMNSLRAEDTAVYYCAARDYGYKGAHYYVMDAWGQGTTVTVSS
VL: DIQMTQSPSSLSASVGDRVTITCKSSQNINRYLNWYQQKPGKAPKLLIYNANNLQTGIPSRFSGSGSGTDFTFTISSLQPEDIATYYCLQHKSWPYTFGQGTKLEIKR
With B16, the binding result with mCCR8 is listed as “no binding”. Further, the figures for the EC50 (in experiment [1]; in the experiment with cynomolgus macaque CCR8) were 1.44 nM and 0.554 nM, respectively.
